Tested on: SwaI restriction endonuclease (native) (Staphylococcus warneri)
Assay: cleavage_in_vitro
Settings: more than 544,000 units in Source-15S fractions 17-19; restriction activity assayed on M13mp19 RF DNA

Substance: M13mp19 RF DNA
- activity: 544000 units

From patent US6245545
